Data: paper PMC4374696, “Protease Activity of PprI Facilitates DNA Damage Response: Mn(2+)-Dependence and Substrate Sequence-Specificity of the Proteolytic Reaction”

T1: DdrO (Deinococcus radiodurans R1 (ATCC 13939)) (UniProt Q9RRB8)
T1 sequence: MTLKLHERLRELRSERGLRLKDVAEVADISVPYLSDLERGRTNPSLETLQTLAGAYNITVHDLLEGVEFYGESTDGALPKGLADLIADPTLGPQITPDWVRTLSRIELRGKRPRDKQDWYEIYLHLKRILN

T2: DdrO (Deinococcus radiodurans R1 (ATCC 13939), UniProt Q9RRB8 1-131)
T2 sequence: T1 sequence

B1: minimum DdrO binding sequence of PrecA (21 bp) (dsDNA)
DNA 1: TGTTATGCTGCTAGCAGAAAT
DNA 2: ATTTCTGCTAGCAGCATAACA

target: T1, DdrO (Deinococcus radiodurans R1 (ATCC 13939)); assay: EMSA; details: 150 mM NaCl, 20 mM Tris-HCl pH 8.0, 5 mM MgCl2, 1.6 uM DNA, 0-16 uM protein, 30 C; 12% TB-PAGE

Molecule	binding
AACGCCAGTTGATTAAGGGGAAATGGAGAGGGGTTCGGGGCGGCCCCTGCCTGCTCTGTCGGCCAGCTTTCGGCAGAGTGGGCCCCGGCTCCGGCGCACTGACGCGGGCTAGACCCTCCCGCGCCGCCCTCCACCGCCGCCTCTACCTTCGTCCTATGCCCCG (double strand) [PddrA- (no RDRM)]	no binding
AGAAACACCAGCATGATCGCAAGGTAGGCTGCTCCGCGCACTGGGGCGTCCGCCGAAAGGTGCAGCGCGCCTCACCTTCCCTTGACCCATCCCATTCAGGGCCGCACCCTGTAGACACTGGTTACGTCCTCCCATATACTCCGGTGAGGTTGTTATGCTGCTAGCAGAAATCATCAGTGTGGGCACG (double strand) [PrecA (recA promoter, RDRM)]	binds
AGGAGCAGTTTCTTCATGAAGCCTCCAGATCAAAGGCGCACGAAGCAGGCCTGCCCCAAAGGAAGGCGGGCCTGCTGGGTTGCGTGACAGCCGGGACGTAAATAATGGCCCCAGGGTAGGGGCGGGCCGGGGGGGTGTCAAGGTACGCAGCGGGGGGCCTCCATGATTCTGCCCACAACGTAAACGCGCTATCCTGGGGAG (double strand) [PrecQ- (no RDRM)]	no binding
AGTTTAGAACAGAATAACATTACGGTCAAGACATAAAACGCCAGTTGATTAAGGGGAAATGGAGAGGGGTTCGGGGCGGCCCCTGCCTGCTCTGTCGGCCAGCTTTCGGCAGAGTGGGCCCCGGCTCCGGCGCACTGACGCGGGCTAGACCCTCCCGCGCCGCCCTCCACCGCCGCCTCTACCTTCGTCCTATGCCCCG (double strand) [PddrA]	binds
CAACCTCACCGGAGTATATGGGAGGACGTAACCAGTGTCTACAGGGTGCGGCCCTGAATGGGATGGGTCAAGGGAAGGTGAGGCGCGCTGCACCTTTCGGCGGACGCCCCAGTGCGCGGAGCAGCCTACCTTGCGATCATGCTGGTGTTTCT (double strand) [PrecA- (no RDRM)]	no binding
CCCTTGCCATACTGCCTTTATTATGCCCTGAACAGATTAAAAAGGCCAGGGGTAGCACTCTGGCATAAGGAAAACCCAGCTTCGGCGGTCTTTGTGCCTTTGCCAGCTTTCACGGCGAAAGAAACGTCCAGATGACAGTGACACCCAAAGTGCACCCGGCGCCGTTCAGGGCACAGGTGCGGACTACAGTGGGGCCGTGAC (double strand) [PpprA]	binds
GCACTGCGGCTTGCAGCGCCGGGTGACCATGCCCAGCCTCCCTGCTCCAGCGCCCGCCCGCAAACCCGAGCGGCGGCTGTTCGGGCTCTTGCGAATCTGAAGGTCTTGGTGCCCGGCCTCTGCTGGGAGGCGGGACACTGGCACCGGCTTCCCCGATGTG (double strand) [PddrB- (no RDRM)]	no binding
GCACTGCGGCTTGCAGCGCCGGGTGACCATGCCCAGCCTCCCTGCTCCAGCGCCCGCCCGCAAACCCGAGCGGCGGCTGTTCGGGCTCTTGCGAATCTGAAGGTCTTGGTGCCCGGCCTCTGCTGGGAGGCGGGACACTGGCACCGGCTTCCCCGATGTGTTATGTTATTTACGTAAGGAGGAGGCAGATGTTGCAGATT (double strand) [PddrB]	binds
TAAAAAGGCCAGGGGTAGCACTCTGGCATAAGGAAAACCCAGCTTCGGCGGTCTTTGTGCCTTTGCCAGCTTTCACGGCGAAAGAAACGTCCAGATGACAGTGACACCCAAAGTGCACCCGGCGCCGTTCAGGGCACAGGTGCGGACTACAGTGGGGCCGTGAC (double strand) [PpprA- (no RDRM)]	no binding
TACTGCGGTCTGACGATGACCTCGTCCTTATCTGCGGGAGCCTCTATCTGCTCGGCGAACTGCGTCCTTTGCTGCTGGGCGAGCAGTCGGAAGGCCACGAACGCTGGCAATAGCCACAGCAGCGGCCAATTTCTGGTTTCGAAACAGGAATAAGGCAAGTTGACTGCCCTCA (double strand) [PddrO- (no RDRM)]	no binding
TACTGCGGTCTGACGATGACCTCGTCCTTATCTGCGGGAGCCTCTATCTGCTCGGCGAACTGCGTCCTTTGCTGCTGGGCGAGCAGTCGGAAGGCCACGAACGCTGGCAATAGCCACAGCAGCGGCCAATTTCTGGTTTCGAAACAGGAATAAGGCAAGTTGACTGCCCTCATTCTGTATTGACCGTAGCAAGGAGCGGTGTTACACT (double strand) [PddrO]	binds
TAGTAACAAGCAGAGTCAATTATGTCAATGACATAAAAGGCTCAGGCCTTCTTGGTCTTCCACTCCGGGCGGTCCTTGACCACCAGGACGCGGCGGACGTTGTCGCGCAGGCGCAGGCTGCTGGCGATGGCGGTTTCGGGGTTGCCCGAAGCCTTGATGGTGTACATCAGGTAGTAGCCTTCGCGGTCCTTGCCCACCTGG (double strand) [PdrssB]	binds

target: T2, DdrO; assay: EMSA; 150 mM NaCl, 20 mM Tris-HCl pH 8.0, 5 mM MgCl2, 1.6 uM DNA, 0-16 uM protein, 30 C; 12% TB-PAGE; details: protein: recombinant; tags: 6xHis-MBP tag removed by TEV; chain copies: 2; blunt

Molecule	binding result
B1	binds
